Laboratory results published in patent US20200264182A1, “METHOD FOR DETECTING PROSTATE CANCER” (J-OIL MILLS, INC., priority 2017, published 2020).

Tests used:
[1] = FAC binding constant; conditions: at 25° C.
Procedure: (§1) Details of the FAC method are described in Patent Document 2 filed by some of the present applicants, for example.
(§2) Binding constants (at 25° C.) of PhoSL, SRL, NSL and LSL belonging to the fucose α1→6 specific lectin for various sugar chains are shown in Tables 2 to 5.

[2] = FAC binding constant (Table 5 entry); conditions: Table 5: sugar chain having no fucose; at 25° C.
Procedure: as §1, §2

[3] = Binding to sugar chains, summary of Tables 2 to 5
Procedure: as §1, §2
The AAL and AOL bind to the fucose α1→6 sugar chains (sugar chains No. 015, 201 to 203, and 401 to 418), as well as to the glycolipid-type sugar chain excluding the fucose α1→6 (sugar chains No. 718, 722, 723, 727, 909, 910 and 933). The LCL and PSL bind to the fucose α1→6 sugar chain, as well as to sugar chain excluding the α1→6 fucose (sugar chains No. 003, and 005 to 014).
Furthermore, the binding constant of the fucose α1→6 specific lectin is not decreased even if a sialic acid is added to the fucose α1→6 sugar chain (sugar chains No. 601 and 602). In addition, the fucose α1→6 specific lectin also strongly binds to the triple-strand (sugar chains No. 407 to 413) and the four-strand (sugar chains No. 418) of the fucose uα1→6 sugar chain.

[4] = sugar chain having fucose other than α1→6 fucose

B1: PSL: Pisum sativum lectin, affinity for fucose α1→6 but not specific (protein, UniProt P02867 31-217; P02867 218-275, looked up)
Lectin beta chain: TETTSFLITKFSPDQQNLIFQGDGYTTKEKLTLTKAVKNTVGRALYSSPIHIWDRETGNVANFVTSFTFVINAPNSYNVADGFTFFIAPVDTKPQTGGGYLGVFNSAEYDKTTQTVAVEFDTFYNAAWDPSNRDRHIGIDVNSIKSVNTKSWKLQNGEEANVVIAFNAATNVLTVSLTYPNSLEEEN
Lectin alpha chain: VTSYTLSDVVSLKDVVPEWVRIGFSATTGAEYAAHEVLSWSFHSELSGTSSSKQAADA
- Binding constant for sugar chain No. 728 ([1]; Table 3: sugar chain having fucose other than α1→6 fucose): <1000 M⁻¹
- Binding constant for sugar chain No. 419 [1, 4]: <1000 M⁻¹
- Binding constant for sugar chain No. 420 [1, 4]: <1000 M⁻¹
- Binding constant for sugar chain No. 718 [1, 4]: <1000 M⁻¹
- Binding constant for sugar chain No. 719 [1, 4]: <1000 M⁻¹
- Binding constant for sugar chain No. 720 [1, 4]: <1000 M⁻¹
- Binding constant for sugar chain No. 721 [1, 4]: <1000 M⁻¹
- Binding constant for sugar chain No. 722 [1, 4]: <1000 M⁻¹
- Binding constant for sugar chain No. 723 [1, 4]: <1000 M⁻¹
- Binding constant for sugar chain No. 726 [1, 4]: <1000 M⁻¹
- Binding constant for sugar chain No. 727 [1, 4]: <1000 M⁻¹
- Binding constant for sugar chain No. 729 [1, 4]: <1000 M⁻¹
- Binding constant for sugar chain No. 730 [1, 4]: <1000 M⁻¹
- Binding constant for sugar chain No. 731 [1, 4]: <1000 M⁻¹
- Binding constant for sugar chain No. 739 [1, 4]: <1000 M⁻¹
- Binding constant for sugar chain No. 909 [1, 4]: <1000 M⁻¹
- Binding constant for sugar chain No. 910 [1, 4]: <1000 M⁻¹
- Binding constant for sugar chain No. 931 [1, 4]: <1000 M⁻¹
- Binding constant for sugar chain No. 932 [1, 4]: <1000 M⁻¹
- Binding constant for sugar chain No. 933 [1, 4]: <1000 M⁻¹
- Binding constant for sugar chain No. 001 ([1]; sugar chain having no fucose): <1000 M⁻¹
- Binding constant for sugar chain No. 002 ([1]; sugar chain having no fucose): <1000 M⁻¹
- Binding constant for sugar chain No. 003 ([1]; sugar chain having no fucose): 7800 M⁻¹
- Binding constant for sugar chain No. 004 ([1]; sugar chain having no fucose): <1000 M⁻¹
- Binding constant for sugar chain No. 005 ([1]; sugar chain having no fucose): 7400 M⁻¹
- Binding constant for sugar chain No. 006 ([1]; sugar chain having no fucose): 7100 M⁻¹
- Binding constant for sugar chain No. 007 ([1]; sugar chain having no fucose): 7800 M⁻¹
- Binding constant for sugar chain No. 008 ([1]; sugar chain having no fucose): 10000 M⁻¹
- Binding constant for sugar chain No. 009 ([1]; sugar chain having no fucose): 7900 M⁻¹
- Binding constant for sugar chain No. 010 ([1]; sugar chain having no fucose): <1000 M⁻¹
- Binding constant for sugar chain No. 011 ([1]; sugar chain having no fucose): <1000 M⁻¹
- Binding constant for sugar chain No. 012 ([1]; sugar chain having no fucose): 17000 M⁻¹
- Binding constant for sugar chain No. 013 ([1]; sugar chain having no fucose): <1000 M⁻¹
- Binding constant for sugar chain No. 014 ([1]; sugar chain having no fucose): 8600 M⁻¹
- Binding constant for sugar chain No. 101 ([1]; sugar chain having no fucose): <1000 M⁻¹
- Binding constant for sugar chain No. 103 ([1]; sugar chain having no fucose): <1000 M⁻¹
- Binding constant for sugar chain No. 104 ([1]; sugar chain having no fucose): <1000 M⁻¹
- Binding constant for sugar chain No. 105 ([1]; sugar chain having no fucose): <1000 M⁻¹
- Binding constant for sugar chain No. 107 ([1]; sugar chain having no fucose): <1000 M⁻¹
- Binding constant for sugar chain No. 108 ([1]; sugar chain having no fucose): <1000 M⁻¹
- Binding constant for sugar chain No. 301 ([1]; sugar chain having no fucose): <1000 M⁻¹
- Binding constant for sugar chain No. 304 ([1]; sugar chain having no fucose): <1000 M⁻¹
- Binding constant for sugar chain No. 305 ([1]; sugar chain having no fucose): <1000 M⁻¹
- Binding constant for sugar chain No. 307 ([1]; sugar chain having no fucose): 2400 M⁻¹
- Binding constant for sugar chain No. 308 ([1]; sugar chain having no fucose): <1000 M⁻¹
- Binding constant for sugar chain No. 313 ([1]; sugar chain having no fucose): <1000 M⁻¹
- Binding constant for sugar chain No. 314 ([1]; sugar chain having no fucose): <1000 M⁻¹
- Binding constant for sugar chain No. 323 ([1]; sugar chain having no fucose): <1000 M⁻¹
- Binding constant for sugar chain No. 501 ([1]; sugar chain having no fucose): <1000 M⁻¹
- Binding constant for sugar chain No. 502 ([1]; sugar chain having no fucose): <1000 M⁻¹
- Binding constant for sugar chain No. 503 ([1]; sugar chain having no fucose): <1000 M⁻¹
- Binding constant for sugar chain No. 504 ([1]; sugar chain having no fucose): <1000 M⁻¹
- Binding constant for sugar chain No. 701 ([1]; sugar chain having no fucose): <1000 M⁻¹
- Binding constant for sugar chain No. 702 ([1]; sugar chain having no fucose): <1000 M⁻¹
- Binding constant for sugar chain No. 703 ([1]; sugar chain having no fucose): <1000 M⁻¹
- Binding constant for sugar chain No. 704 ([1]; sugar chain having no fucose): <1000 M⁻¹
- Binding constant for sugar chain No. 705 ([1]; sugar chain having no fucose): <1000 M⁻¹
- Binding constant for sugar chain No. 706 ([1]; sugar chain having no fucose): <1000 M⁻¹
- Binding constant for sugar chain No. 707 ([1]; sugar chain having no fucose): <1000 M⁻¹
- Binding constant for sugar chain No. 708 ([1]; sugar chain having no fucose): <1000 M⁻¹
- Binding constant for sugar chain No. 709 ([1]; sugar chain having no fucose): <1000 M⁻¹
- Binding constant for sugar chain No. 710 ([1]; sugar chain having no fucose): <1000 M⁻¹
- Binding constant for sugar chain No. 711 ([1]; sugar chain having no fucose): <1000 M⁻¹
- Binding constant for sugar chain No. 712 ([1]; sugar chain having no fucose): <1000 M⁻¹
- Binding constant for sugar chain No. 713 ([1]; sugar chain having no fucose): <1000 M⁻¹
- Binding constant for sugar chain No. 715 ([1]; sugar chain having no fucose): <1000 M⁻¹
- Binding constant for sugar chain No. 716 ([1]; sugar chain having no fucose): <1000 M⁻¹
- Binding constant for sugar chain No. 717 ([1]; sugar chain having no fucose): <1000 M⁻¹
- Binding constant for sugar chain No. 724 ([1]; sugar chain having no fucose): <1000 M⁻¹
- Binding constant for sugar chain No. 725 ([1]; sugar chain having no fucose): <1000 M⁻¹
- Binding constant for sugar chain No. 732 ([1]; sugar chain having no fucose): <1000 M⁻¹
- Binding constant for sugar chain No. 733 ([1]; sugar chain having no fucose): <1000 M⁻¹
- Binding constant for sugar chain No. 734 ([1]; sugar chain having no fucose): <1000 M⁻¹
- Binding constant for sugar chain No. 735 ([1]; sugar chain having no fucose): <1000 M⁻¹
- Binding constant for sugar chain No. 736 ([1]; sugar chain having no fucose): <1000 M⁻¹
- Binding constant for sugar chain No. 737 ([1]; sugar chain having no fucose): <1000 M⁻¹
- Binding constant for sugar chain No. 738 ([1]; sugar chain having no fucose): <1000 M⁻¹
- Binding constant for sugar chain No. 901 ([1]; sugar chain having no fucose): <1000 M⁻¹
- Binding constant for sugar chain No. 902 ([1]; sugar chain having no fucose): <1000 M⁻¹
- Binding constant for sugar chain No. 903 ([1]; sugar chain having no fucose): <1000 M⁻¹
- Binding constant for sugar chain No. 905 ([1]; sugar chain having no fucose): <1000 M⁻¹
- Binding constant for sugar chain No. 906 ([1]; sugar chain having no fucose): <1000 M⁻¹
- Binding constant for sugar chain No. 907 ([1]; sugar chain having no fucose): <1000 M⁻¹
- Binding constant for sugar chain No. 015 ([1]; sugar chain having α1→6 fucose): 120000 M⁻¹
- Binding constant for sugar chain No. 201 ([1]; sugar chain having α1→6 fucose): 100000 M⁻¹
- Binding constant for sugar chain No. 202 ([1]; sugar chain having α1→6 fucose): 44000 M⁻¹
- Binding constant for sugar chain No. 203 ([1]; sugar chain having α1→6 fucose): 25000 M⁻¹
- Binding constant for sugar chain No. 401 ([1]; sugar chain having α1→6 fucose): 92000 M⁻¹
- Binding constant for sugar chain No. 402 ([1]; sugar chain having α1→6 fucose): 48000 M⁻¹
- Binding constant for sugar chain No. 403 ([1]; sugar chain having α1→6 fucose): 38000 M⁻¹
- Binding constant for sugar chain No. 404 ([1]; sugar chain having α1→6 fucose): 45000 M⁻¹
- Binding constant for sugar chain No. 405 ([1]; sugar chain having α1→6 fucose): 36000 M⁻¹
- Binding constant for sugar chain No. 406 ([1]; sugar chain having α1→6 fucose): 13000 M⁻¹
- Binding constant for sugar chain No. 407 ([1]; sugar chain having α1→6 fucose): <1000 M⁻¹
- Binding constant for sugar chain No. 410 ([1]; sugar chain having α1→6 fucose): <1000 M⁻¹
- Binding constant for sugar chain No. 413 ([1]; sugar chain having α1→6 fucose): <1000 M⁻¹
- Binding constant for sugar chain No. 418 ([1]; sugar chain having α1→6 fucose): <1000 M⁻¹
- Binding constant for sugar chain No. 601 ([1]; sugar chain having α1→6 fucose): 31000 M⁻¹
- Binding constant for sugar chain No. 602 ([1]; sugar chain having α1→6 fucose): 29000 M⁻¹
- Binding constant for sugar chain No. 728 [2]: <1000 M⁻¹
- binding to sugar chain excluding the α1→6 fucose (in words) ([3]; sugar chains No. 003, and 005 to 014 for LCL and PSL): bind
- binding to the fucose α1→6 sugar chains (in words) ([3]; sugar chains No. 015, 201 to 203, and 401 to 418): bind
